B1: histidine-tagged wild type Tax (His-Tax) (natural protein)
chain: not shown
notes: Tax protein of HTLV-1, wild type; also called His-tagged Tax protein; source: bacterially expressed (pET3d/Tax), purified (ProBond Resin)
B2: in vitro translated TaxN180 (domain or fragment)
chain: not shown
modifications: labeled with 35S-methionine
notes: HTLV-1 Tax with a C-terminal deletion up to 180 amino acids; source: in vitro translated (TNT QuickCoupled Transcription/Translation Systems, Promega)

Columns and labels:
[1] = target: T1, GST-SUV39H1 Nchromo (human, UniProt O43463 1-118); assay: pull-down; wild type or mutant GST-SUV39H1 or GST (2 ug) bound to Glutathione-Sepharose 4B, mixed with His-tagged Tax (2 ug) in cold PBS, 4°C, one hour; immunoblot with Lt-4; band intensities by NIH Image; conditions: both partners purified
T1 construct: human SUV39H1, C-terminal deletion up to amino acid 118 (SAC domain lost); source: bacterially expressed (pGEX5X-3), purified (Glutathione Sepharose 4B)
T1 sequence (looked up): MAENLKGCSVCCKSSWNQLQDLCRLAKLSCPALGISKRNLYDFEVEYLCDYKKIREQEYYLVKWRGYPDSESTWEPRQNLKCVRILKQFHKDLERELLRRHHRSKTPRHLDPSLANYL

[2] = target: T2, GST-SUV39H1 ΔSET (human, UniProt O43463 1-249); assay: as above; conditions: both partners purified
T2 construct: human SUV39H1 that lost the SET domain and the C-terminal cysteine-rich region but keeps the SET-associated Cys-rich (SAC) domain; the text states no limits; source: bacterially expressed (pGEX5X-3), purified (Glutathione Sepharose 4B)
T2 sequence (looked up): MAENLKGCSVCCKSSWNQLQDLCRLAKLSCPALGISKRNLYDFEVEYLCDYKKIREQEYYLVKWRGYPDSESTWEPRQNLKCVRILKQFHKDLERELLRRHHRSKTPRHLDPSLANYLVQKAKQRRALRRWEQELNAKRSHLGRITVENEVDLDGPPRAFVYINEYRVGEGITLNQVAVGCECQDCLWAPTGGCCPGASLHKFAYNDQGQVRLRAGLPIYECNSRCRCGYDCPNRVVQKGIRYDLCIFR

[3] = target: T3, bacterially expressed GST-SUV39H1, wild type (human, UniProt O43463 1-412); assay: pull-down; GST-SUV39H1 bound to Glutathione-Sepharose 4B, mixed with in vitro translated 35S-labeled Tax proteins (one fourth of the reaction mixture); autoradiography, signals by BAS2000; conditions: one partner purified
T3 construct: human SUV39H1, wild type; cDNA amplified from the start to the stop codon (SUV39H1-F1, SUV39H1-R1); the text counts the protein to amino acid 412; also called SUV39H1-WT; GST-fusion SUV39H1; source: bacterially expressed (pGEX5X-3), purified (Glutathione Sepharose 4B)
T3 sequence (looked up): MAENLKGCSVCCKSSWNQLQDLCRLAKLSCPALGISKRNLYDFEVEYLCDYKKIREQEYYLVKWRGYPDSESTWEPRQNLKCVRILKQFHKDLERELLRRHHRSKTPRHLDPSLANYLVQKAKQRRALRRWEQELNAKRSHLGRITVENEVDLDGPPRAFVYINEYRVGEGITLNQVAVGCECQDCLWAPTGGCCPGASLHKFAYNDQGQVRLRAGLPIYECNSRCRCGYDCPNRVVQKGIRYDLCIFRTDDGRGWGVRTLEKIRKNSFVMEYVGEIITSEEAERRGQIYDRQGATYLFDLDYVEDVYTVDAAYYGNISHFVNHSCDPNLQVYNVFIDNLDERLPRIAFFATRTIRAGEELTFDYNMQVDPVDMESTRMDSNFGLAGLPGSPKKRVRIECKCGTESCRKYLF

Binder | band intensity relative to the wild type [1] | band intensity relative to the wild type [2] | radioactivity relative to the wild type Tax [3]
B1 | ~0.1 of the band intensity of the wild type | < 0.5 of the band intensity of the wild type | 
B2 |  |  | ~0.5 of the radioactivity of the wild type Tax

Source: article PMC1363732, “SUV39H1 interacts with HTLV-1 Tax and abrogates Tax transactivation of HTLV-1 LTR” (Retrovirology, 2006)
